Values belong to the binder of their own block, whether it stands above or below them. No end group written: not given here.
Columns and labels:
[1] = target: T1, human chloride intracellular channel 1 (human, UniProt O00299 1-241); assay: cell-based or functional assay
[2] = target: T1, human chloride intracellular channel 1; assay: cell-based or functional assay; remark: listed apart in the source

Reporter Ratio (A5T4 reporter line, IL-4 induced germline epsilon transcription) [2]: 1.16
Binder: LYTSAALHGATTASMTKPLA [peptide DL03IL]

Reporter Ratio (A5T4 reporter line, IL-4 induced germline epsilon transcription) [2]: 1.22
Binder: LYTSILLHGATTASMTKPAR [peptide DL03LA]

The remaining lines, values behind:

B1: peptide DL03wt (peptide)
peptide: LYTSILLHGATTASMTKPLA
modifications: also: expressed as BFP fusion (BFP, alpha-helical linker, peptide) in GAL4 bait vector, fusion sequences not given here
endogenous epsilon inhibition ratio (TAQMAN quantitative PCR, +IL-4/+Dox to +IL-4/-Dox) [1]: 2.11 | reporter ratio (original library clone screen, A5T4 cells) [1]: 1.32 | Reporter Ratio (A5T4 reporter line, IL-4 induced germline epsilon transcription) [2]: 1.5

Binder: LYTSILLHGATTASMTAALA [peptide DL03KP]
Reporter Ratio (A5T4 reporter line, IL-4 induced germline epsilon transcription) [2]: 1.77

Source: patent US20040014148A1 (RIGEL PHARMACEUTICALS, published 2004)
